Molecular target: the molecule itself
Assay: cryo-EM structure; EAAT3-X in 0.01% GDN, 20 mM HEPES-Tris pH 7.4, in 200 mM NaCl and 20 mM L-glutamate, 300 mM KCl, 150 mM NMDG chloride or 300 mM NaCl; maps refined with C3 symmetry, then symmetry expansion and local classification of protomers

B1: MinCys EAAT3 K269C/W441C crosslinked using Hg2+ (EAAT3-X) (natural protein, human, UniProt P43005 1-524, looked up)
chain: MGKPARKGAEWKRFLKNNWVLLSTVAAVVLGITTGVLVREHSNLSTLEKFYFAFPGEILMRMLKLIILPLIISSMITGVAALDSNVSGKIGLRAVVYYFATTLIAVILGIVLVVSIKPGVTQKVGEIARTGSTPEVSTVDAMLDLIRNMFPENLVQAAFQQYKTKREEVKPPSDPEMTMTEESFTAVMTTAISKTKTKEYKIVGMYSDGINVLGLIVFALVFGLVIGKMGEKGQILVDFFNALSDATMKIVQIIMWYMPLGILFLIAGCIIEVEDWEIFRKLGLYMATVLTGLAIHSIVILPLIYFIVVRKNPFRFAMGMAQALLTALMISSSSATLPVTFRCAEENNQVDKRITRFVLPVGATINMDGTALYEAVAAVFIAQLNDLDLGIGQIITISITATSASIGAAGVPQAGLVTMVIVLSAVGLPAEDVTLIIAVDCLLDRFRTMVNVLGDAFGTGIVEKLSKKELEQMDVSSEVNIVNPFALESTILDNEDSDTKKSYVNGGFAVDKSDTISFTQTSQF
modifications: Hg2+ crosslink between C269 and C441
notes: Homotrimer; also called crosslinked EAAT3-X; MiniCys EAAT3 K269C/W441C; source: HEK 293F, transfected, purified (Strep-Tactin, SEC in GDN), crosslinked with HgCl2; not shown: Strep-II, N-terminal, cleaved; GFP, N-terminal, cleaved
In the case of B1, the “stoichiometry N” value is reported as 3.

Reference: article PMC10160106, “Symport and antiport mechanisms of human glutamate transporters” (Nature Communications, 2023)
